Assay results published in PMC9847341 (Antibody Therapeutics, 2022).

Columns and labels:
[1] = target: human chitinase 3-like-1 (hChi3l1) with C-terminal Avitag and His tag (Homo sapiens, UniProt P36222); test: BLI
[2] = target: mouse chitinase 3-like-1 (mChi3l1) with C-terminal Avitag and His tag (Mus musculus, UniProt Q61362); test: BLI
Sequence of mouse chitinase 3-like-1 (mChi3l1) with C-terminal Avitag and His tag (Q61362 30-389): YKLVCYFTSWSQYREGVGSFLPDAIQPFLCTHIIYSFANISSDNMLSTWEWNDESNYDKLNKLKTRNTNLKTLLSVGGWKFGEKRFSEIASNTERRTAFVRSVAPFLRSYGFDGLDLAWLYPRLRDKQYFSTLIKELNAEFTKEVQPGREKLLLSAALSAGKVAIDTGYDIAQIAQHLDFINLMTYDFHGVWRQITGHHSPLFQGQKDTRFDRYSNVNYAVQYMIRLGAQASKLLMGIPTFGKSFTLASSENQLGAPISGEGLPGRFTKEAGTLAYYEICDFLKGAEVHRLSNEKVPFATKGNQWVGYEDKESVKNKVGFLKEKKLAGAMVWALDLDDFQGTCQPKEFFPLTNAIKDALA

Sequence of human chitinase 3-like-1 (hChi3l1) with C-terminal Avitag and His tag (P36222 22-383): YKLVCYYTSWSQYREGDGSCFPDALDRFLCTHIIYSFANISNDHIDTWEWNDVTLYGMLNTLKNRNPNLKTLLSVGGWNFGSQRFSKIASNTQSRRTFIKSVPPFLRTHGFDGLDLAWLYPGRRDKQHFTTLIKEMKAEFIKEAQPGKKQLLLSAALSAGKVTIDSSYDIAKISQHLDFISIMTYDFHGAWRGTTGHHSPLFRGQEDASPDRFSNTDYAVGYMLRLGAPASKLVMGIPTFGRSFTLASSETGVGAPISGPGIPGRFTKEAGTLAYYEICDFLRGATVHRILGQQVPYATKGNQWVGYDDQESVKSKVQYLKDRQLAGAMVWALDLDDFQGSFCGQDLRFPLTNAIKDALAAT

B1: humanized C59, second version (hC59): hC59-1 with the S67F reverse mutation in the kappa chain FR3 (antibody, V domains shown)
VH: EVQLVESGGGLVQPGGSLRLSCAASGFTISSDYYMCWVRQAPGKGLEWIGCIYIGSGTDTYYASWAKGRFTISRHNSKNTLYLQMNSLRAEDTAVYYCARDKGWSNAWGFYFQLWGQGTLVTVSS
VL: DIQMTQSPSSLSASVGDRVTITCQASQSIGKYLNWYQQKPGKAPKLLIYSSSSLASGVPSRFSGSGFGTDFTLTISSLQPEDFATYYCQQGYSYVDLENGFGGGTKVEI
Q: For B1, which Kd [1] is on record?
A: 9 nM

Q: And the Kd [2]?
A: 7 nM
